Reference: article PMC6992781 (Nature Communications, 2020)

Target: full-length RABV G (isolate 8743THA) (Rabies lyssavirus, isolate 8743THA, UniProt B2XY12, strain)
Test: flow cytometry on cells
Conditions: one partner purified

B1: RVC20 (human broadly neutralizing monoclonal antibody, recombinant IgG1/kappa) (antibody, V domains shown)
VH: QVQLQESGPGLVKPSQTLSLTCTVSGGSFSSGSYSWNWIRQHPGKGLEWIGYIYYSGSTYYNPSLKSRVTMSVHTSKNQFSLKLNSITAADTAVYYCARGTYSDFWSGSPLDYWGQGTLVTVSS
VL: DIQMTQSPSSLSASVGDRVTITCRASQGISNYLAWFQQKPGKAPKSLIYAASSLQSGVPSRFSGSGSGTDFTLTINSLQPEDFVTYFCQQYDTYPLTFGGGTKVEIK
Question: Does B1 bind?
Answer: Result: binds
